Measurements reported in a protein production outcome set (Wang et al. 2014).

Assay: label from the status in PepcDB records

Row | Sequence | protein production
1 | MKLSSNNAETMESLRSERNQYRILVDITNSVLAHLDMDGLISEVSKEIHRFFGLNHISLMLCRTSSQNSHEGILYSSRYQTGKSVIRQQRKFSSANNKAEEIIHQNKPVLIDINKEDQDDVLIKRLVKQNMQTALLLPLAFNRKPLGLLILAHEISSVFTEETCQLLQQIAARIGIAIENAAAYEEITHLKDS | failed
2 | MMALQEEKGKPVHCERHHESSSVDTEPGLEESKEVIKWKRLPGQACRIPNKHLFSLNAGERGCFCLDFSHNGRILAAACASRDGYPIILYEIPSGRFMRELCGHLNIIYDLSWSKDDHYILTSSSDGTARIWKNEINNTNTFRVLPHPSFVYTAKFHPAVRELVVTGCYDSMIRIWKVEMREDSAILVRQFDVHKSFINSLCFDTEGHHMYSGDCTGVIVVWNTYVKINDLEHSVHHWTINKEIKETEFKGIPISYLEIHPNGKRLLIHTKDSTLRIMDLRILVARKFVGAANYREKIHSTLTPCGTFLFAGSEDGIVYVWNPETGEQVAMYSDLPFKSPIRDISYHPFENMVAFCAFGQNEPILLYIYDFHVAQQEAEMFKRYNGTFPLPGIHQSQDALCTCPKLPHQGSFQIDEFVHTESSSTKMQLVKQRLETVTEVIRSCAAKVNKNLSFTSPPAVSSQQSKLKQSNMLTAQEILHQFGFTQTGIISIERKPCNHQVDTAPTVVALYDYTANRSDELTIHRGDIIRVFFKDNEDWWYGSIGKGQEGYFPANHVASETLYQELPPEIKERSPPLSPEEKTKIEKSPAPQKVK | failed
3 | MEMIRGRGIPNGVVQVPNLSANNLLQKFFIASNHFCQRDSEHGENQQEAKKREDEAEEDEKDVELTLGLSLNGQFGTDPRSRKRRHFELGRSSSIPEGFVFDEQRSGGGNGGDMRRIVGRGGSDMFQLDRTRSLPVVTEMDIEKERKVSEKTRAFMESPVTNRGAYLTKDKNRGQAVETEKPRAFLEFKIPPTKEGKKEKDRLVVTGPVNGKGKNGNTAKKQKNNVENSGMEKARNILEDMPCVSTRDVGADGKRVEGFLYWYGGNKEEVKIVCVCHGSFLSPAEFVRHGGGTVSDDDGGDVMINPLRHIVVKLPSSSI | failed
4 | MKHKHGWASVVCCFVLFIVVCLSLTMHVQGAFRAAGHPEIGLLFFTLPGAVASFCSHRREVIRPLIGAMLAAPFCLVLMRVVFMPTRSFWQELAWLFSAVFWCALGALCYLFISSLFSHRRKKRR | failed
5 | MLIFGFIGLFFLNIFSLHAQGIVTNKDAQEEFKWALNSYNNGIYDDALLSFKKILSFDPNNLDYHFWTGNVYYRLGYVEEALMEWRNLKDQGYKVPYLRHLISTIEQRRGIFSNYELNFKKLVKVASLDNSIYKRPHGYQITSLRADKYGGYYAANFVGNEILYFDVNNNVNALVKDGFSYLKSPYDVIEANNLLYVTLYSSDEIGVYDKVLGVKRKSIGNKGTKDGELLAPQYMAIDKRNYIYVSEWGNKRVSKFGLEGDFILHFGSRTSGYKGLLGPTGVTYLNENIYVADSLRNTIEVFDTSGNHLYSVFTSIEGIEGLSSDFVGNNVIVSSKDGVYKYSIAKKTITKILKADKMNSKISSSILDANNQMIVSDFNNAKVSVYKSDASLYDSLNVDVRRIIRLGGPKIYVELNVSSKSGLPVVGLKSENFSISNENYYIVNPKVAYNVNASKDINIAVVFDKSSYMKKYDTDQIVGLNALMELSKNKNFSFINATSVPIIDNIESLTNSIRNTSSLGPYSTDAVKTDVSLKLAGSGLMSKSSRRAVVYFSGGILNRKAFEKYSLDTIVSYYKNNDIRFYLILFGNDPINSKLQYLVNETGGAVIPFSSYEGVSKVYDLILEQKTGTYLLEYYYPGPQEPNKYFNLSVEANINQQTGRGEFAYFINLEHHHHHH | failed
6 | MPEITLNCQKLPCPQPVLRCKALLDTEAPARCTVTVDNAPASENVARFLTSRGYDTSVHADPEGLWNIIAVRKDSAVAPSCDCEVMDARGIAAIAGTAEMPQKVTVFITSETLGSGDDVLGGKLMANFLATLPELGDELWRIVCVNGGVRLATREHPAVTHLNKLEAMGVDILVCGTCLDHFGLLSEKAVGQTTNMLDVVTSLQLATKVIRPLEHHHHHH | not failed
7 | MTAFAAASPRAAVRTGFDGLAISVATRAMMKNLDQNFDAILITGPTASGKSALALRLARERNGVVINADSMQVYDTLRVLTARPSDHEMEGVPHRLYGHVPAGSAYSTGEWLRDISGLLSDLRGEGRFPVIVGGTGLYFKALTGGLSDMPAIPDDLREGLRARLIEEGAAKLHAELVSRDPSMAQMLQPGDGQRIVRALEVLEATGKSIRDFQRASGPMIIDPERAQKFIVLPERPVLHDRINRRFEAMMDSGAVEEVQALLALNLAPDATAMKAIGVAQIADMLTGRMGAAEVIEKSAAATRQYAKRQMTWFRNQMGDDWTRIQPLEHHHHHH | failed
